Read-outs that look alike come from different tables or passages of the source. Numbered stars: 1 amine (or outer) side, 2 acyl side, 3 side chain; on linkers, the order of the positions; unused ones are H or OH. Square brackets hold non-standard residues; d marks the D form. Side chains are listed from the residue outwards. Ends that are not written are not given here. Peptide text beside a SMILES is read from it. * marks the point of attachment. X1 = CCc1c2c(nc3ccc(O)cc13)-c1cc3c(c(=O)n1C2)COC(=O)[C@@]3(CC)OC(=O)*; DOTA = O=C(O)CN1CCN(CC(=O)O)CCN(CC(=O)*)CCN(CC(=O)O)CC1; NH(2-(imidazol-4-yl)ethyl) = c1ncc(CCN*)[nH]1; Suc = O=C(CCC(=O)[*:2])[*:1]
Columns and labels:
[1] = tested on: LS174 human colon cancer cell line; test: ^111In IMP 453 biodistribution in scLS174T tumor-bearing nude mice, with or without TF2 pretargeting; type: in vivo; conditions: for Tissue uptake, Kidney / Tissue uptake, Tumor: 3 Hr
From the text: (§1) The higher uptake in the kidneys of pretargeted mice is probably due the presence of bispecific antibody in the blood or kidney. […] In the absence of TF2, there was little uptake of labeled peptide into the tumor (Table 5).

[2] = as above; type: in vivo; conditions: nude, mouse
From the text: as §1

LS174T tumors = test: Effect of ^213Bi-IMP288 on growth of TF2-pretargeted LS174T tumors; type: in vivo, nude mice; conditions: single injection; 5 nmol TF2 then 0.28 nmol ^213Bi-IMP288
Description: FIG. 5. Growth curves of subcutaneous LS174T xenografts in nude mice. Mice were injected with 5 nmol TF2 bispecific antibody, followed by a single injection of 0.28 nmol ^213Bi-IMP288 or PBS.
(§2) IMP288 was labeled with ^213Bi and in vitro binding characteristics (IC50, Kd, internalization) were compared with those of ^177Lu-IMP288. Tumor targeting of ^213Bi-IMP288 was studied in mice with s.c. LS174T xenografts that were pretargeted with TF2 bispecific antibody. Finally, the effect of ^213Bi-IMP288 (2.5-14 MBq) on the growth of LS174T tumors was assessed.

s.c. LS174T xenografts = test: in vivo; design: species or system mice; conditions: mouse
Description: as §2

in vivo = test: in vivo; design: species or system mice; conditions: mouse
Description: as §2

PKA = conditions: cited from earlier work
TF2 (human) = test: in vitro binding assay, format and partner not described; TF2 (anti-CEA x anti-HSG) is the pretargeting antibody of the example
[3] = tested on: human colorectal adenocarcinoma xenografts (LS 174T); test: Pretargeting study with ^125I-TF2 and ^99mTc-IMP-245 in mice bearing s.c. LS 174T xenografts; type: in vivo, female athymic nude mice; conditions: pretargeted with TF2
Description: A pretargeting study was performed with TF2 in female athymic nude mice bearing s.c. human colorectal adenocarcinoma xenografts (LS 174T). Cells were expanded in tissue culture until enough cells had been grown to inject 55 mice s.c. with 1×10^7 cells per mouse. After one week, tumors were measured and mice assigned to groups of 5 mice per time-point. The mean tumor size at the start of this study was 0.105±0.068 cm^3. Twenty mice were injected with 80 μg ^125I-TF2 (500 pmoles, 2 μCi) and 16 h later administered ^99mTc-IMP-245 (40 μCi, 92 ng, 50 pmoles). The mice were sacrificed and necropsied at 0.5, 1, 4, and 24 h post-peptide injection. In addition, 3 mice of the 24 h time-point groups were imaged on a γ-camera at 1, 4, and 24 h post-injection. As a control, 3 additional mice received only ^99mTc-IMP-245 (no pretargeting) and were imaged at 1, 4, and 24 h post-injection, before being necropsied after the 24 h imaging session. Tumor as well as various tissues were removed and placed in a γ-counter to determine % ID/g in tissue at each time-point.

[4] = biological target: DDD of the RII form of PKA (Homo sapiens, UniProt P13861); conditions: cited from earlier work
RIIα dimers = RIIα dimers (Homo sapiens, UniProt P13861); conditions: read-out: Affinity / binding constant; cited from earlier work
RII isoform of PKA = RII isoform of PKA (Homo sapiens, UniProt P13861); conditions: cited from earlier work
[5] = blood, pretargeted with TF2, read-out: Tissue uptake, Blood
[6] = kidney, pretargeted with TF2, read-out: Tissue uptake, Kidney
[7] = large intestine, pretargeted with TF2, read-out: Tissue uptake, Lg. Int.
[8] = liver, pretargeted with TF2, read-out: Tissue uptake, Liver
[9] = lung, pretargeted with TF2, read-out: Tissue uptake, Lung
[10] = small intestine, pretargeted with TF2, read-out: Tissue uptake, Sm. Int.
[11] = spleen, pretargeted with TF2, read-out: Tissue uptake, Spleen
[12] = stomach, pretargeted with TF2, read-out: Tissue uptake, Stomach
[13] = tumor, pretargeted with TF2, read-out: Tissue uptake, Tumor

DDD of the RII form of PKA, sequence (P13861 whole entry): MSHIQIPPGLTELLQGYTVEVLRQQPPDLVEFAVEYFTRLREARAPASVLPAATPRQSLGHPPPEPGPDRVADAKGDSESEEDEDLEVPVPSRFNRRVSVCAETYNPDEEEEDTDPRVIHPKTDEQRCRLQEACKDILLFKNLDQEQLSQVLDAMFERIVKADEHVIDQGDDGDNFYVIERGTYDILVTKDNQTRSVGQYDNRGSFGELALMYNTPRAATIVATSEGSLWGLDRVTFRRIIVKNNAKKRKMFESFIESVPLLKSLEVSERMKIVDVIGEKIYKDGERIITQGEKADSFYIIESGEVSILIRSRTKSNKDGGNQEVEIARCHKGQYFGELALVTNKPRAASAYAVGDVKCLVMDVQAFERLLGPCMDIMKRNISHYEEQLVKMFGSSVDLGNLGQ
RII isoform of PKA, sequence (P13861 whole entry, canonical isoform): as the sequence (P13861 whole entry) above
RIIα dimers, sequence (P13861 whole entry, canonical isoform): as the sequence (P13861 whole entry) above
TF2 (human), sequence (heavy, as listed by the source, chain 1 of 2): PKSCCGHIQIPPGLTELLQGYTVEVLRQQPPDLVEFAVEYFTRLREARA
TF2 (human), sequence (heavy, as listed by the source, chain 2 of 2): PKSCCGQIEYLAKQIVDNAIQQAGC

CCc1c2c(nc3ccc(O)cc13)-c1cc3c(c(=O)n1C2)COC(=O)[C@@]3(CC)OC(=O)SC[C@@H](NC(=O)CN1CCN(CC(=O)O)CCN(CC(=O)O)CCN(CC(=O)O)CC1)C(=O)N[C@H](C)C(=O)N[C@H](CCCCNC(=O)CNC(=O)CCC(=O)NCCc1cnc[nH]1)C(=O)N[C@H](Cc1ccc(O)cc1)C(=O)N[C@H](CCCCNC(=O)CNC(=O)CCC(=O)NCCc1cnc[nH]1)C(N)=O [^111In IMP 453, metal not drawn] ({DOTA}-[dC](X1)[dA][dK]([Gly-Suc-NH(2-(imidazol-4-yl)ethyl)])[dY][dK]([Gly-Suc-NH(2-(imidazol-4-yl)ethyl)])-NH2)
Tissue uptake, Kidney ([1]; pretargeted with TF2): 21 % ID/g
Tissue uptake, Tumor ([1]; pretargeted with TF2): 28 % ID/g
Tissue uptake, Kidney ([1]; without bsMAb): 9.97 % ID/g
Tissue uptake, Tumor ([1]; without bsMAb): little uptake
Initial kidney uptake eliminated ([1]; by 24 hr, pretargeted with TF2): 50%
Route of clearance ([1]; pretargeted with TF2): Most of the peptide was cleared by urinary excretion
tissue uptake at 3 h [2, 5]: 0.29 ± 0.03 %ID/g
tissue uptake at 3 h ([2]; blood, without bsMAb, read-out: Tissue uptake, Blood): 0.24 ± 0.01 %ID/g
tissue uptake at 24 h [2, 5]: 0.09 ± 0.04 %ID/g
tissue uptake at 48 h [2, 5]: 0.04 ± 0.01 %ID/g
tissue uptake at 3 h [2, 6]: 21.1 ± 4.14 %ID/g
tissue uptake at 3 h ([2]; kidney, without bsMAb, read-out: Tissue uptake, Kidney): 9.97 ± 0.94 %ID/g
tissue uptake at 24 h [2, 6]: 10 ± 2.45 %ID/g
tissue uptake at 48 h [2, 6]: 7.11 ± 1.17 %ID/g
tissue uptake at 3 h [2, 7]: 1.23 ± 1.41 %ID/g
tissue uptake at 3 h ([2]; large intestine, without bsMAb, read-out: Tissue uptake, Lg. Int.): 0.52 ± 0.27 %ID/g
tissue uptake at 24 h [2, 7]: 0.23 ± 0.05 %ID/g
tissue uptake at 48 h [2, 7]: 0.16 ± 0.07 %ID/g
tissue uptake at 3 h [2, 8]: 0.56 ± 0.08 %ID/g
tissue uptake at 3 h ([2]; liver, without bsMAb, read-out: Tissue uptake, Liver): 0.37 ± 0.18 %ID/g
tissue uptake at 24 h [2, 8]: 0.53 ± 0.19 %ID/g
tissue uptake at 48 h [2, 8]: 0.36 ± 0.06 %ID/g
tissue uptake at 3 h [2, 9]: 0.56 ± 0.1 %ID/g
tissue uptake at 3 h ([2]; lung, without bsMAb, read-out: Tissue uptake, Lung): 0.31 ± 0.14 %ID/g
tissue uptake at 24 h [2, 9]: 0.18 ± 0.07 %ID/g
tissue uptake at 48 h [2, 9]: 0.14 ± 0.03 %ID/g
tissue uptake at 3 h [2, 10]: 0.68 ± 0.45 %ID/g
tissue uptake at 3 h ([2]; small intestine, without bsMAb, read-out: Tissue uptake, Sm. Int.): 0.2 ± 0.1 %ID/g
tissue uptake at 24 h [2, 10]: 0.22 ± 0.09 %ID/g
tissue uptake at 48 h [2, 10]: 0.12 ± 0.03 %ID/g
tissue uptake at 3 h [2, 11]: 0.37 ± 0.11 %ID/g
tissue uptake at 3 h ([2]; spleen, without bsMAb, read-out: Tissue uptake, Spleen): 0.22 ± 0.07 %ID/g
tissue uptake at 24 h [2, 11]: 0.66 ± 0.89 %ID/g
tissue uptake at 48 h [2, 11]: 0.25 ± 0.07 %ID/g
tissue uptake at 3 h [2, 12]: 0.41 ± 0.33 %ID/g
tissue uptake at 3 h ([2]; stomach, without bsMAb, read-out: Tissue uptake, Stomach): 0.11 ± 0.06 %ID/g
tissue uptake at 24 h [2, 12]: 0.2 ± 0.12 %ID/g
tissue uptake at 48 h [2, 12]: 0.07 ± 0.01 %ID/g
tissue uptake at 3 h [2, 13]: 28.3 ± 4.03 %ID/g
tissue uptake at 3 h ([2]; tumor, without bsMAb, read-out: Tissue uptake, Tumor): 0.37 ± 0.09 %ID/g
tissue uptake at 24 h [2, 13]: 15.4 ± 1.18 %ID/g
tissue uptake at 48 h [2, 13]: 9.69 ± 1.97 %ID/g

NC(=O)[C@@H](CCCCNC(=O)CNC(=O)CCC(=O)NCCc1c[nH]cn1)NC(=O)[C@@H](CCC(=O)O)NC(=O)[C@@H](CCCCNC(=O)CNC(=O)CCC(=O)NCCc1c[nH]cn1)NC(=O)[C@@H](Cc1ccc(O)cc1)NC(=O)CN1CCN(CC(=O)O)CCN(CC(=O)O)CCN(CC(=O)O)CC1 [^213Bi-IMP288, metal not drawn] ({DOTA}-[dY][dK]([Gly-Suc-NH(2-(imidazol-4-yl)ethyl)])[dE][dK]([Gly-Suc-NH(2-(imidazol-4-yl)ethyl)])-NH2)
Tumor growth (LS174T tumors): significantly inhibited
Tumor targeting relative to ^177Lu-IMP288 (s.c. LS174T xenografts): comparable
tissue uptake at 0.25 h (in vivo): 9.3 ± 2 %ID/g

DLIEEAASRIVDAVIEQVKAAGAY [Ht-31]
PKA isoform preference (PKA): greater affinity for the RII isoform

FEELAWKIAKMIWSDVFQQC [PV-38]
PKA isoform preference (PKA): higher affinity for RI

IMP288 (peptide)
IQ (TF2 (human)): 0.8 nM

IMP-245: di-HSG-based peptide effector labeled with ^99mTc (FKYKK; not fully specified; also: labelled with 99mTc)
Tumor uptake ([3]; 0.5 h post-peptide injection): 22±3 % ID/g
Tumor uptake ([3]; 1 h post-peptide injection): 30±14 % ID/g
Tumor uptake ([3]; 4 h post-peptide injection): 25±4 % ID/g
Tumor uptake ([3]; 24 h post-peptide injection): 16±3 % ID/g

LEQYANQLADQIIKEATE [RIAD]
PKA isoform preference (PKA): higher affinity for RI

PEDAELVRLSKRDVENAVLKAVQQY [AKAP7δ-L308D-pep]
Affinity for the RII DDD sequence [4]: particularly high affinities

PEDAELVRLSKRLVENAVLKAVQQY [AKAP7δ-wt-pep]
Affinity for the RII DDD sequence [4]: particularly high affinities

PEDAELVRTSKRLVENAVLKAVQQY [AKAP7δ-L304T-pep]
Affinity for the RII DDD sequence [4]: particularly high affinities

QIEYLAKQIVDNAIQQA [AKAP-IS]
Affinity for the RII DDD sequence [4]: particularly high affinities
Kd (RIIα dimers): 400 pM

QIEYVAKQIVDYAIHQA [SuperAKAP-IS]
Selectivity for the RII isoform of PKA compared with the RI isoform (RII isoform of PKA): five order of magnitude higher

From patent publication US20160287732A1, “TUMOR THERAPY BY BISPECIFIC ANTIBODY PRETARGETING” (IMMUNOMEDICS, INC., priority 2015, published 2016)
